Broadly, the Kd is a measure of binding affinity in units of concentration. For orientation: koff means the first-order rate constant of dissociation. One may read the kon as a measure of how fast the partners come together.

The results in this text go back to US20260184782A1 (TWIST BIOSCIENCE, published 2026).

To fix the notation:
B1: TIGIT-SC67 (Fc fusion)
VHH: EVQLVESGGGLVQPGGSLRLSCAASGFTFDRSWMGWFRQAPGKEREWVSTIYSNGTPAYADSVKGRFTISADNSKNTAYLQMNSLKPEDTAVYYCARRGLPSYSYGMDVWGQGTLVTVSS
notes: VHH-Fc fusion in assay
B2: TIGIT-SC32 (Fc fusion)
VHH: EVQLVESGGGLVQPGGSLRLSCAASGFAFGDSWMGWFRQAPGKERELVAAIDWSGGSALYADSVKGRFTISADNSKNTALQMNSLKPEDTAVYYCAKVHSDFRAGWDVWGQGTLVTVSS
notes: VHH-Fc fusion in assay
B3: TIGIT-SC104 (Fc fusion)
VHH: EVQLVESGGGLVQPGGSLRLSCAASGFTFSTYTMGWFRQAPGKEREFVAAISPSGNTYYADSVKGRFTISADNSKNTAYLQMNSLKPEDTAVYYCARWGGITFGGVYPLDYWGQGTLVTVSS
notes: VHH-Fc fusion in assay
B4: TIGIT-SC100 (Fc fusion)
VHH: EVQLVESGGGLVQPGGSLRLSCAASGRTLSDRAMGWFRQAPGKEREFVAAITDNGGSTYYADSVKGRFTISADNSKNTAYLQMNSLKPEDTAVYYCARWYSSSGDYYYMDVWGQGTLVTVSS
notes: VHH-Fc fusion in assay
B5: TIGIT-SC101 (Fc fusion)
VHH: EVQLVESGGGLVQPGGSLRLSCAASGRTFSSYAMGWFRQAPGKEREFVAAIDWSDGSTYYADSVKGRFTISADNSKNTAYLQMNSLKPEDTAVYYCARWYSSSGDYYYMDVWGQGTLVTVSS
notes: VHH-Fc fusion in assay
B6: TIGIT-SC52 (Fc fusion)
VHH: EVQLVESGGGLVQPGGSLRLSCAASGFLFDSYAMGWFRQAPGKEREFVAAISTGGGWRTYADSVKGRFTISADNSKNTAYLQMNSLKPEDTAVYYCAKRGNDNWYFDLWGQGTLVTVSS
notes: VHH-Fc fusion in assay
B7: TIGIT-SC18 (Fc fusion)
VHH: EVQLVESGGGLVQPGGSLRLSCAASGFSLDYYAMGWFRQAPGKEREVVAIIDTNGDNTLYADSVKGRFTISADNSKNTAYLQMNSLKPEDTAVYYCARGRGYGDYVGAYWGQGTLVTVSS
notes: VHH-Fc fusion in assay
B8: TIGIT-SC212 (Fc fusion)
VHH: EVQLVESGGGLVQPGGSLRLSCAASGFLFDSYAMGWFRQAPGKEREFVAAIWRSGTLKAYADSVKGRFTISADNSKNTAYLQMNSLKPEDTAVYYCARWVGASGDYWIDYWGQGTLVTVSS
notes: VHH-Fc fusion in assay
B9: TIGIT-SC213 (Fc fusion)
VHH: EVQLVESGGGLVQPGGSLRLSCAASGTFQRINAMGWFRQAPGKEREFVAAIWRSGTLKAYADSVKGRFTISADNSKNTAYLQMNSLKPEDTAVYYCARWVGASGDYWIDYWGQGTLVTVSS
notes: VHH-Fc fusion in assay
B10: TIGIT-SC206 (Fc fusion)
VHH: EVQLVESGGGLVQPGGSLRLSCAASGFLFDSYVMGWFRQAPGKEREFVAAIWRSGTLKAYADSVKGRFTISADNSKNTAYLQMNGLKPEDTAVYYCAGVGTDYGDYLFNYWGQGTLVTVSS
notes: VHH-Fc fusion in assay
B11: TIGIT-SC8 (Fc fusion)
VHH: EVQLVESGGGLVQPGGSLRLSCAASGFAFSSYAMGWFRQAPGKEREFVARITWNGGSAYYADSVKGRFTISADNSKNTAYLQMNSLKPEDTAVYYCAAGATGWFDPWGQGTLVTVSS
notes: VHH-Fc fusion in assay
B12: TIGIT-SC49 (Fc fusion)
VHH: EVQLVESGGGLVQPGGSLRLSCAASGRTFIGYHMGWFRQAPGKEREFVAAISWTGESTLYADSVKGRFTISADNSKNTAYLQMNSLKPEDTAVYYCARDDYGDYRRYFQHWGQGTLVTVSS
notes: VHH-Fc fusion in assay
B13: TIGIT-SC69 (Fc fusion)
VHH: EVQLVESGGGLVQPGGSLRLSCAASGGTFNGRAMGWFRQAPGKEREFVAAISSIGDTYYADSVKGRFTISADNSKNTAYLQMNSLKPEDTAVYYCARWRLDRRQGFYYAMDVWGQGTLVTVSS
notes: VHH-Fc fusion in assay
B14: TIGIT-SC22 (Fc fusion)
VHH: EVQLVESGGGLVQPGGSLRLSCAASGFTLENNMMGWFRQAPGKEREMVAAISWSGGSALYADSVKGRFTISADNSKNTAYLQMNSLKPEDTAVYYCARGDGYSYGNFDYWGQGTLVTVSS
notes: VHH-Fc fusion in assay
B15: TIGIT-SC151 (Fc fusion)
VHH: EVQLVESGGGLVQPGGSLRLSCAASGFPFSIYPMGWFRQAPGKEREFVAAISASGTLRAYADSVKGRFTISADNSKNTAYLQMNSLKPEDTAVYYCARSSSWVRIFDYWGQGTLVTVSS
notes: VHH-Fc fusion in assay
B16: TIGIT-SC81 (Fc fusion)
VHH: EVQLVESGGGLVQPGGSLRLSCAASGRSFKDDAMGWFRQAPGKEREFVAAISWSGDSTHYADSVKGRFTISADNSKNTAYLQMNSLKPEDTAVYYCARWVWASGTYWIDYWGQGTLVTVSS
notes: VHH-Fc fusion in assay
B17: TIGIT-SC179 (Fc fusion)
VHH: EVQLVESGGGLVQPGGSLRLSCAASGFTFSPSWMGWFRQAPGKEREWVASVLRGGYTWYADSVKGRFTISADNSKNTAYLQMNSLKPEDTAVYYCASEVASGETDYWGQGTLVTVSS
notes: VHH-Fc fusion in assay
B18: TIGIT-SC163 (Fc fusion)
VHH: EVQLVESGGGLVQPGGSLRLSCAASGFTFDRSWMGWFRQAPGKEREWVASVLRGGYTWYADSVKGRFTISADNSKNTAYLQMNSLKPEDTAVYYCATDKRGPHPDYWGQGTLVTVSS
notes: VHH-Fc fusion in assay
B19: TIGIT-SC178 (Fc fusion)
VHH: EVQLVESGGGLVQPGGSLRLSCAASGFTLSPSWMGWFRQAPGKEREWVASVLRGGYTWYADSVKGRFTISADNSKNTAYLQMNSLKPEDTAVYYCASEVASGETDYWGQGTLVTVSS
notes: VHH-Fc fusion in assay
B20: TIGIT-SC184 (Fc fusion)
VHH: EVQLVESGGGLVQPGGSLRLSCAASGFTFSPSWMGWFRQAPGKEREWVASVLRGGYTWYADSVKGRFTISADNSKNTAYLQMNSLKPEDTAVYYCTTDRGYNWNYDWGQGTLVTVSS
notes: VHH-Fc fusion in assay
B21: TIGIT-SC166 (Fc fusion)
VHH: EVQLVESGGGLVQPGGSLRLSCAASGFTFDRSWMGWFRQAPGKEREWVASVLRGGYTWYADSVKGRFTISADNSKNTAYLQMNSLKPEDTAVYYCAREGSGYASDYWGQGTLVTVSS
notes: VHH-Fc fusion in assay
B22: TIGIT-SC168 (Fc fusion)
VHH: EVQLVESGGGLVQPGGSLRLSCAASGFTFDRSWMGWFRQAPGKEREWVASVLRGGYAWYADSVKGRFTISADNSKNTAYLQMSSLKPEDTAVYYCAREGSGYASDYWGQGTLVTVSS
notes: VHH-Fc fusion in assay
B23: TIGIT-SC211 (Fc fusion)
VHH: EVQLVESGGGLVQPGGSLRLSCAASGFSFSMYVMGWFRQAPGKEREFVAAIWRSGTLKAYADSVKGRFTISADNSKNTAYLQMNSLKPGDTAVYYCARDHRAMVAPFDYWGQGTLVTVSS
notes: VHH-Fc fusion in assay
B24: TIGIT-SC208 (Fc fusion)
VHH: EVQLVESGGGLVQPGGSLRLSCAASGFLFDSYVMGWFRQAPGKEREFVAAIWRSGTLKAYADSVKGRFTISADNSKNTEYLQMNSLKPEDTAVYYCARDDYGDTRRYFQHWGQGTLVTVSS
notes: VHH-Fc fusion in assay
B25: TIGIT-SC209 (Fc fusion)
VHH: EVQLVESGGGLVQPGGSLRLSCAASGFLFNSYWMGWFRQAPGKEREFVAAIWRSGTLKAYADSVKGRFTISADNSKNTEYLQMNSLKPEDTAVYYCARDDYGDYRIYFQHWGQGTLVTVSS
notes: VHH-Fc fusion in assay
B26: TIGIT-SC207 (Fc fusion)
VHH: EVQLVESGGGLVQPGGSLRLSCAASGFAFSSYVMGWFRQAPGKEREFVAAIWRSGTLKAYADSVKGRFTISADNSKNTEYLQMNSLKPEDTAVYYCARDDYGDTRRYFQHWGQGTLVTVSS
notes: VHH-Fc fusion in assay

For the assay, the target named is T1, recombinant human TIGIT (human, UniProt Q495A1 22-141, limits assumed).
T1 construct: recombinant human TIGIT used in Carterra SPR; also called hTIGIT
T1 sequence (looked up): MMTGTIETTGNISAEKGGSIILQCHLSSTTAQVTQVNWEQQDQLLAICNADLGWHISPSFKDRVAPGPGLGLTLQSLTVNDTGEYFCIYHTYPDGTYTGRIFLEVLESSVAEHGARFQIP
The experiment in a line: SPR Carterra, average. The procedure: Binding affinities of VHH-Fc proteins to recombinant human TIGIT were measured by SPR using a Carterra instrument (Table 10A). […] Average values reported from measurements from 1-2 samples.
In the case of B1, the Kd is 18 nM, the koff is 0.00402 s⁻¹ and the on-rate constant (kon) worked out at 224000 M⁻¹ s⁻¹.

B2: the Kd came to 16.6 nM, the off-rate constant (koff) turned out to be 0.00243 s⁻¹ and the kon turned out to be 147000 M⁻¹ s⁻¹.

Turning to B3, the Kd is 15.2 nM, the koff was determined as 0.00375 s⁻¹ and the kon is 247000 M⁻¹ s⁻¹.

For B4, the Kd turned out to be 15.1 nM, the koff is 0.00183 s⁻¹ and the kon worked out at 122000 M⁻¹ s⁻¹.

As to B5, the Kd came to 73.4 nM, the koff was 0.00421 s⁻¹ and the kon came out at 67800 M⁻¹ s⁻¹.

With B6, the Kd is 17.7 nM, the koff turned out to be 0.00175 s⁻¹ and the kon turned out to be 101000 M⁻¹ s⁻¹.

In the case of B7, the Kd stood at 16.3 nM, the koff was 0.00225 s⁻¹ and the kon was 141000 M⁻¹ s⁻¹.

As for B8, the Kd was determined as 17.1 nM, the off-rate constant (koff) was found to be 0.00126 s⁻¹ and the kon worked out at 74100 M⁻¹ s⁻¹.

On to B9, for which the dissociation constant (Kd) was found to be 36.4 nM, the koff is 0.00285 s⁻¹ and the kon is 78400 M⁻¹ s⁻¹.

In the case of B10, the Kd was found to be 15.6 nM, the koff was determined as 0.0157 s⁻¹ and the kon was 1e+06 M⁻¹ s⁻¹.

With B11, the Kd turned out to be 14.6 nM, the koff worked out at 0.000753 s⁻¹ and the kon is 156000 M⁻¹ s⁻¹.

Consider B12, for which the Kd was found to be 14.4 nM, the koff is 0.00102 s⁻¹ and the kon worked out at 129000 M⁻¹ s⁻¹.

For B13, the Kd came to 12.6 nM, the koff was 0.00276 s⁻¹ and the kon was determined as 219000 M⁻¹ s⁻¹.

For B14, the Kd is 17.7 nM, the off-rate constant (koff) turned out to be 0.00118 s⁻¹ and the kon came out at 70300 M⁻¹ s⁻¹.

B15: the Kd was 16.8 nM, the koff amounted to 0.00479 s⁻¹ and the kon was determined as 285000 M⁻¹ s⁻¹.

Consider B16, for which the Kd worked out at 15.3 nM, the koff is 0.00233 s⁻¹ and the kon was determined as 169000 M⁻¹ s⁻¹.

With B17, the Kd was found to be 51.1 nM, the koff worked out at 0.00269 s⁻¹ and the kon was 50400 M⁻¹ s⁻¹.

Regarding B18, the Kd came out at 86.4 nM, the koff came out at 0.00269 s⁻¹ and the kon is 38400 M⁻¹ s⁻¹.

On to B19, for which the Kd was 296 nM, the koff came to 0.0776 s⁻¹ and the kon came to 262000 M⁻¹ s⁻¹.

For B20, the Kd is 12.7 nM, the koff came to 0.014 s⁻¹ and the kon is 1.11e+06 M⁻¹ s⁻¹.

Regarding B21, the Kd was 24.9 nM, the koff was 0.00147 s⁻¹ and the kon stood at 58400 M⁻¹ s⁻¹.

In the case of B22, the Kd is 83.6 nM, the koff came out at 0.00254 s⁻¹ and the association rate constant (kon) stood at 30400 M⁻¹ s⁻¹.

Take B23: the Kd came out at 13 nM, the koff came to 8.53e-05 s⁻¹ and the kon came out at 6540 M⁻¹ s⁻¹.

B24: the Kd is 851 nM, the koff is 0.196 s⁻¹ and the kon turned out to be 231000 M⁻¹ s⁻¹.

As for B25, the Kd came out at 41.4 nM, the koff was determined as 0.000625 s⁻¹ and the kon came to 15100 M⁻¹ s⁻¹.

Take B26: the Kd worked out at 12.2 nM, the koff stood at 0.00371 s⁻¹ and the kon was 528000 M⁻¹ s⁻¹.
